The values below come from US20180346604A1.

In test [1] the target is Biotin-GCN4 peptide (yeast). Put plainly: SPR (Biacore 3000), Biotin-GCN4 peptide captured on immobilised streptavidin, Fab-scFv injected, 1:1 binding model.
The target in test [2] is Biotin-GCN4 peptide (yeast). Put plainly: SPR, Biacore 3000, 25 C; biotin-GCN4 peptide captured on streptavidin CM5 chip, Fab-scFv as analyte from 30 nM, 1:1 model.

B1: Fab-scFv (anti-GCN4 52SR4 scFv fused to a Fab, generated in-house) (Fab, part only; not given: carrier Fab and its linker, not shown: another chain or arm of the molecule; large carriers; small tags and cut ends)
scFv: DAVVTQESALTSSPGETVTLTCRSSTGAVTTSNYASWVQEKPDHLFTGLIGGTNNRAPGVPARFSGSLIGDKAALTITGAQTEDEAIYFCVLWYSDHWVFGCGTKLTVLGGGGGSGGGGSGGGGSGGGGSDVQLQQSGPGLVAPSQSLSITCTVSGFLLTDYGVNWVRQSPGKCLEWLGVIWGDGITDYNSALKSRLSVTKDNSKSQVFLKMNSLQSGDSARYYCVTGLFDYWGQGTTLTVSSAAAHHHHHHEQKLISEEDL
Take B1: in test [1], the koff was determined as 0.00027 s⁻¹ and the kon worked out at 510000 M⁻¹ s⁻¹. The same molecule displayed a Kd in test [2] of 0.516 nM.
